Test results published in PMC6327505, “Adaption to glucose limitation is modulated by the pleotropic regulator CcpA, independent of selection pressure strength”.

Target: T1, CcpA-Ile19 (evolved, 445C1) (Lactococcus lactis MG1363 (evolved …, UniProt A2RJC5 1-332, M19I))
T1 sequence: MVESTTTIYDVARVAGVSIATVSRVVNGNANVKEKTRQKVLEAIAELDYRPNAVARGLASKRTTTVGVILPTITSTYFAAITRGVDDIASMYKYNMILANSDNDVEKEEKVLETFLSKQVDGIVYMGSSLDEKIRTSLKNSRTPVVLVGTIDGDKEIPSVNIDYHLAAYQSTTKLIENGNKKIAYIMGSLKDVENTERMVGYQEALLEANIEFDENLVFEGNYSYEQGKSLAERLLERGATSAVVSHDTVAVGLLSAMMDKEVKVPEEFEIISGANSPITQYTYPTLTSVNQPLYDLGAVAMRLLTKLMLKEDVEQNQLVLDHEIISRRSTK
Assay: EMSA; 100-800 nM CcpA, 4 nM DNA; affinity increased vs Met19, least pronounced; EMSA: 20 mM Tris-HCl pH 8, 100 mM KCl, 10 mM MgCl2, 1 mM EDTA, 1 mM DTT, 5% glycerol, 40 ug/ml BSA, 4 nM Cy3-DNA, 30 C 20 min; 7.5% native PAGE in TBE
Conditions: protein: recombinant; tags: N-terminal 6xHis (pQE30); chain copies: 2; label: 5'-Cy3 on (+) strand; blunt

B1: mtlD cre (dsDNA)
DNA 1: ACCACAATGTAAAAGCTTACAATTGCT
DNA 2: AGCAATTGTAAGCTTTTACATTGTGGT
  binding result: binds
